Experimental data published in the supplement of paper PMC10724198.
± gives the standard deviation of the averaged measurements.

Key:
Saccharomyces cerevisiae [1] = assay: protein stability index of tFT-peptide fusion (C-terminal peptide) (PSI (0-1 scale)); higher = more stable (slower turnover); details: genetic background: wild type; temperature: 30 C
Saccharomyces cerevisiae [2] = assay: as above
Protocol: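 MPS profiling in S. cerevisiae of the tFT-X12 degron library: putative degron peptides plus stable controls, 12 aa, fused to the C-terminus of a sfGFP-mCherry timer. Cells are FACS-sorted into 8 mCherry/sfGFP bins and deep-sequenced. PSI runs from 0 (unstable) to 1 (stable). Backgrounds are wild type, das1Δ and doa10Δ at 30 °C, and wild type, das1Δ, cdc34-1 and cdc53-1 at 37 °C; 2-3 technical replicates each.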

[3] = genetic background: cdc34-1, temperature: 37 C
[4] = genetic background: cdc53-1, temperature: 37 C
[5] = genetic background: das1 deletion, temperature: 30 C
[6] = genetic background: das1 deletion, temperature: 37 C
[7] = genetic background: doa10 deletion, temperature: 30 C
[8] = genetic background: wild type, temperature: 30 C
[9] = genetic background: wild type, temperature: 37 C
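Note: PSI is a weighted mean of sequencing reads over stability bins, variants kept only with over 10 reads, mCherry proximal and sfGFP distal, peptide attached via GGGS linker.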

Sequence | protein stability index (Saccharomyces cerevisiae [1]) | protein stability index (Saccharomyces cerevisiae [2]; [3]) | protein stability index (Saccharomyces cerevisiae [2]; [4]) | protein stability index (Saccharomyces cerevisiae [2]; [5]) | protein stability index (Saccharomyces cerevisiae [2]; [6]) | protein stability index (Saccharomyces cerevisiae [2]; [7]) | protein stability index (Saccharomyces cerevisiae [2]; [8]) | protein stability index (Saccharomyces cerevisiae [2]; [9])
SYALGNVVGGSL | 0.72 ± 0.013 | 0.675 ± 0.045 | 0.75 ± 0.015 | 0.637 ± 0.018 | 0.748 ± 0.014 | 0.631 ± 0.025 | 0.645 ± 0.0065 | 0.721 ± 0.022
TCPFTIHRLKVG | 0.238 ± 0.077 | 0.63 ± 0.01 | 0.7483 ± 0.0035 | 0.617 ± 0.017 | 0.7458 ± 0.0033 | 0.118 ± 0.018 | 0.137 ± 0.028 | 0.218 ± 0.012
TEHIIAFKASVN | 0.214 ± 0.02 | 0.546 ± 0.0031 | 0.7284 ± 0.0037 | 0.626 ± 0.033 | 0.71 ± 0.01 | 0.0901 ± 0.025 | 0.104 ± 0.024 | 0.153 ± 0.028
TFRVLFSVALLV | 0.212 ± 0.086 | 0.172 ± 0.0042 | 0.216 ± 0.0069 | 0.259 ± 0.024 | 0.3436 ± 0.0022 | 0.1804 ± 0.00079 | 0.182 ± 0.021 | 0.2319 ± 0.0022
TGRLFVSLRVWY | 0.437 ± 0.038 | 0.321 ± 0.0046 | 0.375 ± 0.055 | 0.295 ± 0.035 | 0.467 ± 0.0072 | 0.302 ± 0.015 | 0.305 ± 0.006 | 0.442 ± 0.0058
TLPIWLRVLIFG | 0.404 ± 0.032 | 0.341 ± 0.066 | 0.342 ± 0.038 | 0.295 ± 0.026 | 0.456 ± 0.0082 | 0.2762 ± 0.002 | 0.29 ± 0.0033 | 0.426 ± 0.014
TLRINSPFYFLS | 0.419 ± 0.012 | 0.694 ± 0.058 | 0.703 ± 0.02 | 0.654 ± 0.019 | 0.7509 ± 0.0024 | 0.242 ± 0.011 | 0.282 ± 0.022 | 0.53 ± 0.021
TLWWRQPFWGFG | 0.722 ± 0.042 | 0.731 ± 0.038 | 0.802 ± 0.0045 | 0.659 ± 0.013 | 0.8 ± 0.021 | 0.673 ± 0.0095 | 0.702 ± 0.013 | 0.781 ± 0.017
TSRRPFVLVMWL | 0.485 ± 0.015 | 0.504 ± 0.0061 | 0.599 ± 0.0078 | 0.405 ± 0.04 | 0.6229 ± 0.0049 | 0.363 ± 0.011 | 0.388 ± 0.035 | 0.576 ± 0.027
TTATLSFAICAV | 0.4276 ± 0.0029 | 0.412 ± 0.01 | 0.455 ± 0.012 | 0.315 ± 0.022 | 0.473 ± 0.0063 | 0.27 ± 0.0051 | 0.325 ± 0.022 | 0.452 ± 0.014
